Among the data in patent publication US20250236651A1 are degradation of the electrospun scaffold (mass over time) and hydroxylysine content (amino acid analysis) values, retold here.

The target of assay [1] is FIB3COL1 (Fibroin-III/Collagen Type-I fusion protein) (Araneus diadematus; human).
Assay [2] concerns the target SPIDICOL1 (Spidroin-I/Collagen Type-I fusion protein) (Nephila clavipes; human).
The target in assay [3] is native Bovine Collagen Type I (Thermo Fisher) (bovine) (UniProt P02453).
Assay [4] has as its target FIB3COL1 (Fibroin-III/Collagen Type-I fusion protein) (Araneus diadematus; human). The source holds these as a separate data set.
The target in assay [5] is SPIDICOL1 (Spidroin-I/Collagen Type-I fusion protein) (Nephila clavipes; human). This is another data set of the same source.

collagenase (enzyme): the degradation of the electrospun scaffold (mass over time) was determined as 100 h in assay [1], 96 h in assay [2] and 64 h in assay [3].

B1: Lysin Hydroxylase 3 (LH3), exogenous human (enzyme)
chain: SDRPRGRDPVNPEKLLVITVATAETEGYLRFLRSAEFFNYTVRTLGLGEEWRGGDVARTVGGGQKVRWLKKEMEKYADREDMIIMFVDSYDVILAGSPTELLKKFVQSGSRLLFSAESFCWPEWGLAEQYPEVGTGKRFLNSGGFIGFATTIHQIVRQWKYKDDDDDQLFYTRLYLDPGLREKLSLNLDHKSRIFQNLNGALDEVVLKFDRNRVRIRNVAYDTLPIVVHGNGPTKLQLNYTYPEHERELGNYVPNGWTPEGGCGFCNQDRRTLPGGQPPPRVFLAVFVEQPTPFLPRFLQRLLLLDYPPDRVTLFLHNNEVFHEPHIADSWPQLQDHFSAVKLVGPEEALSPGEARDMAMDLCRQDPECEFYFSLDADAVLTNLQTLRILIEENRKVIAPMLSRHGKLWSNFWGALSPDEYYARSEDYVELVQRKRVGVWNVPYISQAYVIRGDTLRMELPQRDVFSGSDTDPDMAFCKSFRDKGIFLHLSNQHEFGRLLATSRYDTEHLHPDLWQIFDNPVDWKEQYIHENYSRALEGEGIVEQPCPDVYWFPLLSEQMCDELVAEMEHYGQWSGGRHEDSRLAGGYENVPTVDIHMKQVGYEDQWLQLLRTYVGPMTESLFPGYHTKARAVMNFVVRYRPDEQPSLRPHHDSSTFTLNVALNHKGLDYEGGGCRFLRYDCVISSPRKGWALLHPGRLTHYHEGLPTTWGTRYIMVSFVDP
Regarding B1, the hydroxylysine content (amino acid analysis) is 39 fold in assay [4] and 36 fold in assay [5].
